Measured values reported in publication PMC9221696.

B1: wild-type Fas receptor (Fas/CD95) tagged with mCerulean3 or mVenus [human] / Cerulean3-tagged FADD containing only the death domain (FADD DD) [human] (parent)
chain 1: LCAAFNVICDNVGKDWRRLARQLKVSDTKIDSIEDRYPRNLTERVRESLRIWKNTEKENATVAHLVGALRSCQMNLVADLVQEVQ
chain 2: QVTDINSKGLELRKTVTTVETQNLEGLHHDGQFCHKPCPPGERKARDCTVNGDEPDCVPCQEGKEYTDKAHFSSKCRRCRLCDEGHGLEVEINCTRTQNTKCRCKPNFFCNSTVCEHCDPCTKCEHGIIKECTLTSNTKCKEEGSRSNLGWLCLLLLPIPLIVWVKRKEVQKTCRKHRKENQGSHESPTLNPETVAINLSDVDLSKYITTIAGVMTLSQVKGFVRKNGVNEAKIDEIKNDNVQDTAEQKVQLLRNWHQLHGKKEAYDTLIKDLKKANLCTLAEKIQTIILKDITSDSENSNFRNEIQSLV

Variants of: B1
Assay: flow-cytometric FRET between Fas and FADD DD in live cells
Conditions: with Cerulean3-tagged FADD containing only the death domain (FADD DD) [human], RapoC2 (Fas-deficient Jurkat) cells, read off a plot

| Variant | screen value (FasL-LZ 5 min, parent: 1.3) | screen value (FasL-LZ 15 min, parent: 1.5) | screen value (FasL-LZ 30 min, parent: 1.7) | screen value (FasL-LZ 60 min, parent: 1.9) | screen value (FasL-LZ 120 min, parent: 1.9) |
| --- | --- | --- | --- | --- | --- |
| chain 2 E236K | 1.1 | 1.1 | 1.1 | 1.1 | 1.1 |
| chain 2 A232D | 1.1 | 1.1 | 1.1 | 1.1 | 1.1 |
| chain 2 C174V | 1.4 | 1.6 | 1.8 | 1.9 | 2 |
